Assays:
importin-7 = biological target: T1, importin-7 (Homo sapiens, UniProt O95373); assay: Coimmunoprecipitation with importin-7; assay type: binding; conditions: HeLa cells, coimmunoprecipitation with anti GFP Ab, with or without stimulation
T1 construct: endogenous in cells; host or cells: HeLa
Protocol: FIGS. 19A-19C are autoradiographs illustrating that phospho-SPS interacts with importin-7 and releases Nup153c binding without involvment of importin-β. […]. Interaction of ERK2 with Importin-7 is enhanced by EGF stimulation and EPE mutation. HeLa cells overexpressing WT-ERK (WT), ERK-APA (APA), ERK-EPE (EPE) or GFP were serum starved and treated with EGF (50 ng/ml, 10 min). The extracts of the treated cells were then subjected to coimmunoprecipitation using A/G beads pre-conjugated with anti GFP Ab and mild washes. The coimmunoprecipitated importin-7 (first panel) and importin-β (third panel), as well as their loading amounts (panels 2 and 4 respectively) were determined by WB using anti importin-7 (αImp7) and importin-β (αImpβ) Abs. The equal amount of immunoprecipitated ERKs was determined with anti GFP (αGFP; IP) Ab. FIG. 19B. Interaction of 2GFP-SPS and its mutants with importin-7. HeLa cells overexpressing 2GFP, 2GFP-SPS, 2GFP-APA and 2GFP-EPE constructs were subjected to coimmunoprecipitation as described in FIG. 19A (without EGF stimulation). FIG. 19C. Interaction of NUP153 with WTERK2 and its APA and EPE mutants. NUP153c is elevated in APA-ERK2, but reduced in EPE-ERK2. Immunoprecipitated and stringently washed WT-ERK2 (WT), APA-ERK2 (APA) or ERK2 from […] cells pre-treated with or without TPA (250 nM, 15 min) were incubated with 0.5 μg recombinant His-Nup153c. […]

CHO cells = assay: Fluorescence microscopy of ERK2 constructs (subcellular localization); assay type: cell-based; conditions: overexpressed in CHO (and COS7) cells, serum-starved, fluorescent microscope
Protocol: FIGS. 1A-1R are photomicrographs illustrating the role of SPS in the non-regulated accumulation of ERK2 in the nucleus. CHO (FIGS. 1A-F and 1M-R) or COS7 cells (FIGS. 1G-L) were grown on cover slips and transfected with WT-ERK2, or the mutants 244-6A and Δ244-6. Twenty-four hr following transfection, the cells were serum-starved (16 hr), fixed, stained with DAPI and visualized using a fluorescent microscope.
FIGS. 2A-2X are photomicrographs illustrating the role of SPS in the stimulated nuclear translocation of ERK2. CHO cells were grown on cover slips and co-transfected with HA-MEK1 together with either WT-ERK2, 244-6A, or Δ244-6. Twenty-four hr after transfection, the cells were serum starved for 16 hours, treated with TPA (250 nM, 15 min), except in WT-10 where the cells were treated with 10 nM TPA for 15 min. After treatments the cells were fixed and stained with either anti-HA Ab or DAPI.
FIGS. 5A-5F are photomicrographs illustrating that mutating the Ser residues in the SPS to Glu induces the nuclear accumulation of ERK2. CHO cells were grown on cover slips and transfected with WT-GFP-ERK2 (WT), APA-GFP-ERK2 (APA), or EPE-GFP-ERK2 (EPE). Twenty-four hr after transfection, the cells were serum-starved, fixed, stained with DAPI and visualized by a fluorescent microscope.
FIGS. 7A-7H are photomicrographs illustrating that EPE-ERKs translocates to the nucleus faster than WT-ERK. CHO cells were transfected with WT-GFP-ERK2 (WT) and EPE-GFP-ERK2 (EPE). Eight (FIGS. 7A-D) or twelve (FIGS. 7E-H) hours after transfection the cells were fixed, stained with DAPI and visualized by a fluorescent microscope.
Immunofluorescence Microscopy. Cells were fixed (30 min in 3% paraformaldehyde in PBS or 10 min with ice-cold methanol), followed by 5-min permeabilization with 0.2% Triton X-100 in PBS (23° C.). The fixed cells were sequentially incubated with the appropriate Abs (45 min) followed by rhodamine-conjugated secondary Abs (45 min) and DAPI. Slides were visualized using a fluorescence microscope (Nikon, Japan) at 400× magnifications. […]

COS7 cells = assay: Subcellular fractionation of GFP-ERK2 constructs; assay type: cell-based; conditions: 48 hr after transfection, serum-starved
Protocol: FIG. 6 is an autoradiograph illustrating the subcellular fractionation of WT-GFP-ERK2 (WT), APA-GFP-ERK2 (APA), or EPE-GFP-ERK2 (EPE). COS7 cells were grown in 10 cm plates and transfected with the above ERK2 constructs. Twenty-four hr after transfection the cells were serum-starved for 16 hr and subjected to cellular fractionation as described under materials and Methods. Western blot analysis of aliquots of the fractions were stained with anti GFP Ab to detect the ERK2 and its mutant, and with anti tubulin and anti c-Jun Abs as markers for the cytoplasmic and nuclear fractions respectively.
Cellular Fractionation: Transfected COS7 cells were starved (0.1% FBS) for 16 h, after which they were washed with ice-cold PBS, suspended in ice-cold buffer H, and centrifuged (12,000×g, 5 min). Then, the nuclear and cytosolic fractions were isolated as described [H. Rubinfeld, T. Hanoch, R. Seger, J. Biol. Chem. 274, 30349 (1999)]. Briefly, the pellets were suspended in 0.1% NP-40 followed by centrifugation (12,000×g, 5 min). The supernatant, containing the cytosolic fraction, was boiled in sample buffer. The pellet was suspended in extraction buffer (420 mM Nacl, 50 mM β-glycerophosphate, 0.5 mM Na3VO4, 1.5 mM MgCl2, 0.2 mM EDTA, 1 mM DTT, 25% glycerol), incubate on ice for 10 min, sonicated (50 W, 2×7 sec), and centrifuged (12,000×g, 5 min). […]

T1 sequence (O95373 whole entry): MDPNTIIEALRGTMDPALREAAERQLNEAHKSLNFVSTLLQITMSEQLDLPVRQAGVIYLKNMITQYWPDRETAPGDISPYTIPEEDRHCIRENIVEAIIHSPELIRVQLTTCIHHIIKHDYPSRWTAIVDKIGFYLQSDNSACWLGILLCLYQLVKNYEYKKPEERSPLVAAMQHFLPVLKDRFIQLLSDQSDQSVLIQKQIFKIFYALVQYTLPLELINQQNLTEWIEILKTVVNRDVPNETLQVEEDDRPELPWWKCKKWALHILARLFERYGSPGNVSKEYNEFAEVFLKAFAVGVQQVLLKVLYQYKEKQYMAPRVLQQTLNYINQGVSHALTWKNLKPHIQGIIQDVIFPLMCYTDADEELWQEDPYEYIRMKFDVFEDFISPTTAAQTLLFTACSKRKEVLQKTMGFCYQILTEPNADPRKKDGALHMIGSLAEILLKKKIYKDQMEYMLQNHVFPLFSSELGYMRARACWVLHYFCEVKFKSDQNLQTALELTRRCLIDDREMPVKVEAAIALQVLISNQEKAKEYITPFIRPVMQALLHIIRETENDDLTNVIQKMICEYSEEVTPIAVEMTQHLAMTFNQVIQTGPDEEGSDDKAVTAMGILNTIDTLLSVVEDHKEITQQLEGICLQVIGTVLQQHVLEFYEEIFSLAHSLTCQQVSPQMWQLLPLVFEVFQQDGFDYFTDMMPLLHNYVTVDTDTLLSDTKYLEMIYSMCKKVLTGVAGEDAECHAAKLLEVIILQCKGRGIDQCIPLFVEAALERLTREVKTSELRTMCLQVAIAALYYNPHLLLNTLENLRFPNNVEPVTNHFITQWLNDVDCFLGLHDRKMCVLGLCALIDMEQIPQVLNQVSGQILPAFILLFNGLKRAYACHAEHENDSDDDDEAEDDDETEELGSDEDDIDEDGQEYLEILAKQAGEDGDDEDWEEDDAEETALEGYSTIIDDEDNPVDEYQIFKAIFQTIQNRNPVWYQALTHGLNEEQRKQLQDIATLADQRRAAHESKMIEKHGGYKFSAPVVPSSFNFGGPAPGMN

B1: APA-ERK2: GFP-ERK2 with the two Ser residues of the SPS sequence replaced by Ala (protein)
chain: MAAAAAAGPEMVRGQVFDVGPRYTNLSYIGEGAYGMVCSAYDNLNKVRVAIKKISPFEHQTYCQRTLREIKILLRFRHENIIGINDIIRAPTIEQMKDVYIVQDLMETDLYKLLKTQHLSNDHICYFLYQILRGLKYIHSANVLHRDLKPSNLLLNTTCDLKICDFGLARVADPDHDHTGFLTEYVATRWYRAPEIMLNSKGYTKSIDIWSVGCILAEMLSNRPIFPGKHYLDQLNHILGILGAPAQEDLNCIINLKARNYLLSLPHKNKVPWNRLFPNADSKALDLLDKMLTFNPHKRIEVEQALAHPYLEQYYDPSDEPIAEAPFKFDMELDDLPKEKLKELIFEETARFQPGYRS
modifications: left off: large carriers
interaction of ERK2 constructs with importin-7 (importin-7): reduced the interaction | subcellular localization in quiescent cells (CHO cells): cytoplasmic distribution | localized in the nucleus (COS7 cells): ~5%
